The values below come from PMC2556353, “Identification of direct regulatory targets of the transcription factor Sox10 based on function and conservation”.

For series [1], the target named is T1, GST-SOX10 HMG (mouse, UniProt Q04888 80-185). Put plainly: EMSA; specific unlabeled probe abrogates the complex; 10 mM HEPES pH 8.0, 5% glycerol, 50 mM NaCl, 5 mM MgCl2, 2 mM DTT, 0.1 mM EDTA, 4 ug BSA, 2 ug poly(dIdC) in 35 ul; 25 min at room temperature; 5% PAGE in 1x TBE. The settings on record: protein: recombinant; tags: N-terminal GST (pGEX-4T-1); label: 32P end label (probe); 3' overhang 4 nt on strand 1 as printed (20-mer/16-mer). For orientation: Mobility shift assays separate free from complexed probe on a gel.

In series [2] the target is T1, GST-SOX10 HMG. Briefly: competition; unlabeled excess against labeled WT SOD3 probe; did not effectively compete; 10 mM HEPES pH 8.0, 5% glycerol, 50 mM NaCl, 5 mM MgCl2, 2 mM DTT, 0.1 mM EDTA, 4 ug BSA, 2 ug poly(dIdC) in 35 ul; 25 min at room temperature; 5% PAGE in 1x TBE. Conditions: protein: recombinant; tags: N-terminal GST (pGEX-4T-1); blunt.

T1 sequence (Q04888 80-185): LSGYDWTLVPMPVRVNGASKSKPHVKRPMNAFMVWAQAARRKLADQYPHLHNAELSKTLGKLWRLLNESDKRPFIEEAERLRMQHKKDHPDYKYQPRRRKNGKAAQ

B1: SOD3 probe (WT) (dsDNA)
DNA 1: GAAGAGGCACAATGGTCTCT
DNA 2: ACCATTGTGCCTCTTC
For B1, the binding result with GST-SOX10 HMG [1] was “binds”.

B2: SOD3 mutated probe (MT) (dsDNA)
DNA 1: GAAGAGGCAGACTGGTCTCT
DNA 2: AGAGACCAGTCTGCCTCTTC
For the molecule B2, in the series with GST-SOX10 HMG [2], the binding result is recorded as “no binding”.
